# Laboratory results: patent US20240391954A1, “MC4R AGONIST PEPTIDES” (The Regents of the University of Michigan, priority 2021, published 2024)
# Starred links: 1 amine or outer side, 2 acyl side, 3 side chain; linkers in the order of their positions; H or OH if unused. Positions of bridges follow the written chain, without caps; N, C: chain ends. Non-standard residues stand in square brackets, D forms with d. dTyr(4-OMe) = O-methyl-D-tyrosine (4-OMe), COc1ccc(C[C@@H](N[*:1])C(=O)[*:2])cc1; dPhe(4-Br) = N[C@H](Cc1ccc(Br)cc1)C(=O)O; 1Nal = N[C@@H](Cc1cccc2ccccc12)C(=O)O; d1Nal = N[C@H](Cc1cccc2ccccc12)C(=O)O; 2Pal = N[C@@H](Cc1ccccn1)C(=O)O; 3Pal = N[C@@H](Cc1cccnc1)C(=O)O; 4Pal = N[C@@H](Cc1ccncc1)C(=O)O; Cit = NC(=O)NCCC[C@H](N)C(=O)O; Nle = CCCC[C@H](N)C(=O)O; Orn = NCCC[C@H](N)C(=O)O; Aib = CC(C)(N)C(=O)O
# How the values were obtained:
# Assay in all cases: cell-based or functional assay
# human MC4R receptor [1] = biological target: T1, human MC4R receptor (human, UniProt P32245 1-332)
# T1 sequence (P32245 whole entry): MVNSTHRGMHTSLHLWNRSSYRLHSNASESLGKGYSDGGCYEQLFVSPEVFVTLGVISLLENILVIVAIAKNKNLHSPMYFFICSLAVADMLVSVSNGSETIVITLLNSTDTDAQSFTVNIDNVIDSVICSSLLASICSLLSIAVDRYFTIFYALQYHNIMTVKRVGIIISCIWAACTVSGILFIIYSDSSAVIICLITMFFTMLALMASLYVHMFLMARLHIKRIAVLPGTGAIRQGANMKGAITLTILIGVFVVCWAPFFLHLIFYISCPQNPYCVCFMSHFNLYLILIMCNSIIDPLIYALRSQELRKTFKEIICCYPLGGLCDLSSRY
# human MC4R receptor [2] = biological target: T1, human MC4R receptor; remark: listed apart in the source
# human MC3R = human MC3R (human, UniProt P41968 1-323)
# Sequence of human MC3R (P41968 whole entry): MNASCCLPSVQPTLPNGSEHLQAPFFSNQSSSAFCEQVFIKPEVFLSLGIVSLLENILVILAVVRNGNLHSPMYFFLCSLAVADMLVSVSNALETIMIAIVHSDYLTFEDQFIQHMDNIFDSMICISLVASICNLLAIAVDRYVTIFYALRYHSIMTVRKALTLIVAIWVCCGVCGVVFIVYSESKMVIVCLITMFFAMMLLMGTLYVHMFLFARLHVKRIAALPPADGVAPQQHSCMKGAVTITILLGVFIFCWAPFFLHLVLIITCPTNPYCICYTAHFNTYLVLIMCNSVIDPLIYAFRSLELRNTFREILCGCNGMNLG
Binder,MC4R selectivity vs MC1R (human MC4R receptor [1]),MC4R selectivity vs MC3R (human MC4R receptor [1]),% max activation (human MC4R receptor [2]) [%],cAMP EC50 (human MC4R receptor [2]) [nM],% max activation (human MC3R) [%],cAMP EC50 (human MC3R) [nM]
Ac-RC[Aib][Orn][dF]RFC-NH2 (disulfide 2-8; SMILES CC(=O)N[C@@H](CCCNC(=N)N)C(=O)N[C@H]1CSSC[C@@H](C(N)=O)NC(=O)[C@H](Cc2ccccc2)NC(=O)[C@H](CCCNC(=N)N)NC(=O)[C@@H](Cc2ccccc2)NC(=O)[C@H](CCCN)NC(=O)C(C)(C)NC1=O) [CTX-1602],3.65,3.44,97,73,80,251
Ac-RC[Aib][2Pal][dF]RFC-NH2 (disulfide 2-8; SMILES CC(=O)N[C@@H](CCCNC(=N)N)C(=O)N[C@H]1CSSC[C@@H](C(N)=O)NC(=O)[C@H](Cc2ccccc2)NC(=O)[C@H](CCCNC(=N)N)NC(=O)[C@@H](Cc2ccccc2)NC(=O)[C@H](Cc2ccccn2)NC(=O)C(C)(C)NC1=O) [CTX-1604],3.66,0.11,96,1520,12,167
Ac-RC[Aib][3Pal][dF]RFC-NH2 (disulfide 2-8; SMILES CC(=O)N[C@@H](CCCNC(=N)N)C(=O)N[C@H]1CSSC[C@@H](C(N)=O)NC(=O)[C@H](Cc2ccccc2)NC(=O)[C@H](CCCNC(=N)N)NC(=O)[C@@H](Cc2ccccc2)NC(=O)[C@H](Cc2cccnc2)NC(=O)C(C)(C)NC1=O) [CTX-1605],0.14,> 300,85,33,,> 10000
Ac-RC[Aib][4Pal][dF]RFC-NH2 (disulfide 2-8; SMILES CC(=O)N[C@@H](CCCNC(=N)N)C(=O)N[C@H]1CSSC[C@@H](C(N)=O)NC(=O)[C@H](Cc2ccccc2)NC(=O)[C@H](CCCNC(=N)N)NC(=O)[C@@H](Cc2ccccc2)NC(=O)[C@H](Cc2ccncc2)NC(=O)C(C)(C)NC1=O) [CTX-1606],2.99,0.62,92,133,7.69,82
Ac-R[Nle]C[Cit][dF]R[dW]C-NH2 (disulfide 3-8; SMILES CCCC[C@H](NC(=O)[C@H](CCCNC(=N)N)NC(C)=O)C(=O)N[C@H]1CSSC[C@@H](C(N)=O)NC(=O)[C@@H](Cc2c[nH]c3ccccc23)NC(=O)[C@H](CCCNC(=N)N)NC(=O)[C@@H](Cc2ccccc2)NC(=O)[C@H](CCCNC(N)=O)NC1=O) [CTX-1608],2.07,0.95,79,288,19,274
Ac-R[Nle]C[Cit]FRWC-NH2 (disulfide 3-8; SMILES CCCC[C@H](NC(=O)[C@H](CCCNC(=N)N)NC(C)=O)C(=O)N[C@H]1CSSC[C@@H](C(N)=O)NC(=O)[C@H](Cc2c[nH]c3ccccc23)NC(=O)[C@H](CCCNC(=N)N)NC(=O)[C@H](Cc2ccccc2)NC(=O)[C@H](CCCNC(N)=O)NC1=O) [CTX-1609],4.15,4.72,96,86,65,407
Ac-R[Nle]CH[1Nal]RWC-NH2 (disulfide 3-8; SMILES CCCC[C@H](NC(=O)[C@H](CCCNC(=N)N)NC(C)=O)C(=O)N[C@H]1CSSC[C@@H](C(N)=O)NC(=O)[C@H](Cc2c[nH]c3ccccc23)NC(=O)[C@H](CCCNC(=N)N)NC(=O)[C@H](Cc2cccc3ccccc23)NC(=O)[C@H](Cc2c[nH]cn2)NC1=O) [CTX-1610],0.03,0.66,90,247,67,163
Ac-R[Nle]CR[d1Nal]RWC-NH2 (disulfide 3-8; SMILES CCCC[C@H](NC(=O)[C@H](CCCNC(=N)N)NC(C)=O)C(=O)N[C@H]1CSSC[C@@H](C(N)=O)NC(=O)[C@H](Cc2c[nH]c3ccccc23)NC(=O)[C@H](CCCNC(=N)N)NC(=O)[C@@H](Cc2cccc3ccccc23)NC(=O)[C@H](CCCNC(=N)N)NC1=O) [CTX-1611],0.25,6.61,67,1.6,58,11
Ac-R[Nle]CR[dF]R[dW]C-NH2 (disulfide 3-8) [CTX-1616],1.51,3.78,93,16,78,61
Ac-R[Nle]C[Orn][dF]RWC-NH2 (disulfide 3-8; SMILES CCCC[C@H](NC(=O)[C@H](CCCNC(=N)N)NC(C)=O)C(=O)N[C@H]1CSSC[C@@H](C(N)=O)NC(=O)[C@H](Cc2c[nH]c3ccccc23)NC(=O)[C@H](CCCNC(=N)N)NC(=O)[C@@H](Cc2ccccc2)NC(=O)[C@H](CCCN)NC1=O) [CTX-1617],1.75,11,102,0.21,102,2.3
Ac-R[Nle]C[2Pal][dF]RWC-NH2 (disulfide 3-8; SMILES CCCC[C@H](NC(=O)[C@H](CCCNC(=N)N)NC(C)=O)C(=O)N[C@H]1CSSC[C@@H](C(N)=O)NC(=O)[C@H](Cc2c[nH]c3ccccc23)NC(=O)[C@H](CCCNC(=N)N)NC(=O)[C@@H](Cc2ccccc2)NC(=O)[C@H](Cc2ccccn2)NC1=O) [CTX-1619],86,13,99,2.6,84,33
Ac-R[Nle]C[3Pal][dF]RWC-NH2 (disulfide 3-8; SMILES CCCC[C@H](NC(=O)[C@H](CCCNC(=N)N)NC(C)=O)C(=O)N[C@H]1CSSC[C@@H](C(N)=O)NC(=O)[C@H](Cc2c[nH]c3ccccc23)NC(=O)[C@H](CCCNC(=N)N)NC(=O)[C@@H](Cc2ccccc2)NC(=O)[C@H](Cc2cccnc2)NC1=O) [CTX-1620],47,12,91,4.7,39,58
Ac-R[Nle]C[4Pal][dF]RWC-NH2 (disulfide 3-8; SMILES CCCC[C@H](NC(=O)[C@H](CCCNC(=N)N)NC(C)=O)C(=O)N[C@H]1CSSC[C@@H](C(N)=O)NC(=O)[C@H](Cc2c[nH]c3ccccc23)NC(=O)[C@H](CCCNC(=N)N)NC(=O)[C@@H](Cc2ccccc2)NC(=O)[C@H](Cc2ccncc2)NC1=O) [CTX-1621],82,13,92,2.9,15,36
Ac-R[Nle]CR[dF]RFC-NH2 (disulfide 3-8; SMILES CCCC[C@H](NC(=O)[C@H](CCCNC(=N)N)NC(C)=O)C(=O)N[C@H]1CSSC[C@@H](C(N)=O)NC(=O)[C@H](Cc2ccccc2)NC(=O)[C@H](CCCNC(=N)N)NC(=O)[C@@H](Cc2ccccc2)NC(=O)[C@H](CCCNC(=N)N)NC1=O) [CTX-1622],0.39,0.32,101,41,100,13
Ac-R[Nle]CR[dPhe(4-Br)]RFC-NH2 (disulfide 3-8; SMILES CCCC[C@H](NC(=O)[C@H](CCCNC(=N)N)NC(C)=O)C(=O)N[C@H]1CSSC[C@@H](C(N)=O)NC(=O)[C@H](Cc2ccccc2)NC(=O)[C@H](CCCNC(=N)N)NC(=O)[C@@H](Cc2ccc(Br)cc2)NC(=O)[C@H](CCCNC(=N)N)NC1=O) [CTX-1623],1.08,2.29,73,1.7,62,3.9
Ac-R[Nle]CR[dTyr(4-OMe)]RFC-NH2 (disulfide 3-8; SMILES CCCC[C@H](NC(=O)[C@H](CCCNC(=N)N)NC(C)=O)C(=O)N[C@H]1CSSC[C@@H](C(N)=O)NC(=O)[C@H](Cc2ccccc2)NC(=O)[C@H](CCCNC(=N)N)NC(=O)[C@@H](Cc2ccc(OC)cc2)NC(=O)[C@H](CCCNC(=N)N)NC1=O) [CTX-1624],0.15,0.47,83,12,66,5.6
Ac-R[Nle]C[Cit][dF]RFC-NH2 (disulfide 3-8; SMILES CCCC[C@H](NC(=O)[C@H](CCCNC(=N)N)NC(C)=O)C(=O)N[C@H]1CSSC[C@@H](C(N)=O)NC(=O)[C@H](Cc2ccccc2)NC(=O)[C@H](CCCNC(=N)N)NC(=O)[C@@H](Cc2ccccc2)NC(=O)[C@H](CCCNC(N)=O)NC1=O) [CTX-1626],3.05,1.6,83,425,51,678
